Experimental data: the supplement of paper PMC10126150
± gives the standard deviation of the averaged measurements.
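Further: ATP exposure 15 min at 22 °C before imaging.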

These sequences were tested on ATP (assay: switch fluorescence ratio, 500 uM ATP over buffer (Cy3 cluster intensity, sum of 5 cycles each) (fold (ratio)); higher = stronger signal-on switching upon ATP binding; sequences stand for … in TCGTCGGCAGCGTCAGATGTGTATAAGAGACAGTTTTTTTTTTTTTTTTTTTTTTTTT…TC). Conditions: aptamer strand: ATP DNA aptamer (quencher-CACCTGGGGGAGTATTGCGGAGGAAGG + anchor), 100 nM annealed; ATP concentration: 500 uM.
Procedure, shortened: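 Switching-strand clusters labelled with Cy3 on a modified Illumina MiSeq flow-cell were annealed to 100 nM quencher-labelled ATP aptamer, imaged in selection buffer, and re-imaged after 15 min with 500 uM ATP at 22 °C. This was done over five cycles with NaOH stripping and re-annealing in between. The fluorescence ratio is summed target-cycle over summed buffer-cycle Cy3 intensity per cluster, averaged per switch-domain sequence, excluding clusters outside 100-1000 RFU.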
AAAAAAAAGC showed a switch fluorescence ratio of 1.03 ± 0.038. AAAAAAAGGA showed a switch fluorescence ratio of 1.01 ± 0.021. Work on AAAAAAAGGC yielded a switch fluorescence ratio of 0.998 ± 0.042. For AAAAAAATCG, the switch fluorescence ratio was 1.01 ± 0.028. AAAAAAATTT showed a switch fluorescence ratio of 1 ± 0.029. Work on AAAAAAGTGC yielded a switch fluorescence ratio of 1.04 ± 0.051. AAAAAAGTTC gave a switch fluorescence ratio of 0.984 ± 0.022. For AAAAAATACG, the switch fluorescence ratio was 1.09 ± 0.091. Work on AAAAAATAG yielded a switch fluorescence ratio of 0.985 ± 0.013. Sequence AAAAAATTAG has a switch fluorescence ratio of 0.996 ± 0.05. For AAAAAATTAT, the switch fluorescence ratio was 1.03 ± 0.087. AAAAACGCTA was tested, and the switch fluorescence ratio was 1.14 ± 0.026. With AAAAACTAGT the switch fluorescence ratio was 1.04 ± 0.035. In the case of AAAAACTTGT, the switch fluorescence ratio is reported as 1.03 ± 0.034. With AAAAAGAAGA the switch fluorescence ratio was 0.976 ± 0.033. Sequence AAAAAGCGGT has a switch fluorescence ratio of 0.984 ± 0.029. For AAAAAGCTCG, the switch fluorescence ratio was 0.985 ± 0.064. AAAAAGGGGT gave a switch fluorescence ratio of 1.15 ± 0.34. AAAAAGGTTA was tested, and the switch fluorescence ratio was 0.998 ± 0.025. Work on AAAAAGTCAT yielded a switch fluorescence ratio of 0.967 ± 0.021. Sequence AAAAATATTT has a switch fluorescence ratio of 1.61 ± 0.86. With AAAAATCGAG the switch fluorescence ratio was 1.0015 ± 0.00019. For AAAAATCGGT, the switch fluorescence ratio was 0.996 ± 0.044. AAAAATGCTT showed a switch fluorescence ratio of 1.02 ± 0.066. AAAAATGGGG was tested, and the switch fluorescence ratio was 0.972 ± 0.0098. Work on AAAAATGGGT yielded a switch fluorescence ratio of 1 ± 0.016. AAAAATGGTT gave a switch fluorescence ratio of 1.02 ± 0.014. In the case of AAAACAAATA, the switch fluorescence ratio is reported as 0.9968 ± 0.0089. AAAACAAGGA was tested, and the switch fluorescence ratio was 1.01 ± 0.041. Sequence AAAACAGCCG has a switch fluorescence ratio of 0.957 ± 0.1. In the case of AAAACCAGAC, the switch fluorescence ratio is reported as 1.53 ± 0.078. With AAAACGAAAT the switch fluorescence ratio was 1.02 ± 0.032. Work on AAAACGAATG yielded a switch fluorescence ratio of 1.05 ± 0.065. With AAAACGGATT the switch fluorescence ratio was 0.977 ± 0.014. In the case of AAAACGTGGG, the switch fluorescence ratio is reported as 1.02 ± 0.022. In the case of AAAACTCCGA, the switch fluorescence ratio is reported as 1.07 ± 0.097. For AAAACTTCTT, the switch fluorescence ratio was 1 ± 0.013. AAAACTTTGC was tested, and the switch fluorescence ratio was 1.02 ± 0.039. AAAAGAATGT was tested, and the switch fluorescence ratio was 0.993 ± 0.021. Work on AAAAGACCCT yielded a switch fluorescence ratio of 1.04 ± 0.071. Sequence AAAAGACGGG has a switch fluorescence ratio of 1.03 ± 0.022. In the case of AAAAGAGGGG, the switch fluorescence ratio is reported as 1 ± 0.031. Sequence AAAAGATCAT has a switch fluorescence ratio of 0.999 ± 0.012. AAAAGGACGG gave a switch fluorescence ratio of 1.044 ± 0.0036. AAAAGGAG gave a switch fluorescence ratio of 1.01 ± 0.016. AAAAGGAGGG showed a switch fluorescence ratio of 0.999 ± 0.013. For AAAAGGGCGC, the switch fluorescence ratio was 1.03 ± 0.045. AAAAGGGGG gave a switch fluorescence ratio of 0.976 ± 0.018. AAAAGGGGGT gave a switch fluorescence ratio of 1.02 ± 0.049. AAAAGGGGTC showed a switch fluorescence ratio of 0.9959 ± 0.0053. Sequence AAAAGGGTCT has a switch fluorescence ratio of 1.02 ± 0.024. In the case of AAAAGGTTAT, the switch fluorescence ratio is reported as 1.02 ± 0.027. AAAAGTAATT gave a switch fluorescence ratio of 0.985 ± 0.021. In the case of AAAAGTAGTT, the switch fluorescence ratio is reported as 1.01 ± 0.038. AAAAGTGTTT showed a switch fluorescence ratio of 0.99 ± 0.033. Work on AAAATAATGG yielded a switch fluorescence ratio of 0.998 ± 0.04. AAAATACTAT was tested, and the switch fluorescence ratio was 1.02 ± 0.026. In the case of AAAATAGTGT, the switch fluorescence ratio is reported as 1.013 ± 0.01. AAAATATGCC showed a switch fluorescence ratio of 1.02 ± 0.026. In the case of AAAATATGGT, the switch fluorescence ratio is reported as 1.01 ± 0.033. AAAATCTGTT was tested, and the switch fluorescence ratio was 1.02 ± 0.061. AAAATGCGCA showed a switch fluorescence ratio of 1.02 ± 0.037. Sequence AAAATGCGGA has a switch fluorescence ratio of 0.9951 ± 0.003. AAAATGGCGT was tested, and the switch fluorescence ratio was 0.9694 ± 0.004. Work on AAAATGGGGT yielded a switch fluorescence ratio of 1.02 ± 0.052. Work on AAAATGGTAT yielded a switch fluorescence ratio of 1.01 ± 0.038. AAAATGGTGT was tested, and the switch fluorescence ratio was 1.002 ± 0.0083. AAAATGGTTT showed a switch fluorescence ratio of 0.994 ± 0.037. In the case of AAAATGTTCC, the switch fluorescence ratio is reported as 1.19 ± 0.025. AAAATTAACG was tested, and the switch fluorescence ratio was 1.04 ± 0.028. AAAATTATCT gave a switch fluorescence ratio of 1.01 ± 0.021. In the case of AAAATTATGG, the switch fluorescence ratio is reported as 0.968 ± 0.02. AAAATTCTGG gave a switch fluorescence ratio of 0.973 ± 0.034. AAAATTGCAT showed a switch fluorescence ratio of 0.993 ± 0.021. AAAATTTAAT showed a switch fluorescence ratio of 1.01 ± 0.016. AAAATTTAGG was tested, and the switch fluorescence ratio was 0.986 ± 0.03.
